# Patent US20110059092A1 (INNOGENETICS, published 2011)
# Changes are numbered by the printed parent chain. Ends that are not written are not given here. * marks the point of attachment. Biotin = O=C1N[C@H]2[C@H](CS[C@H]2CCCCC(=O)*)N1
# T1: Aβ6-13-bio (not fully specified (C-terminus); printed as H6DSGYEVH13GK-biotin)
# T1 construct: Synthetic biotinylated peptide, shifted two amino acids N-terminal compared with Aβ8-15; also called Aβ6-13 peptide
# T1 peptide: HDSGYEVHGK(Biotin)
# T2: Aβ8-15-bio (not fully specified (C-terminus); printed as S8GYEVHHQ15GK-biotin)
# T2 construct: Synthetic biotinylated peptide with a free N-terminus at Ser8 of Aβ; also called IGP-2258; Aβ8-15 peptide
# T2 peptide: SGYEVHHQGK(Biotin)
# B1: TeiA 2b.6 (antibody, IgG2b, V domains shown)
# VH: GGLVQPGGSLRLSCATSGFTFTDFYMEWVRQPPGKRLEWIAASRNKANGYTTEYSASVKGRFIVSRDTSQGILYLQMSALRAEDTAIYYCAIYRYYAMDYWGQGTSVTVSS
# VL: SSLTVTAGEKVTMSCKSSQSLFNSGRQTNYLTWFQQRPGQAPKLLIYWASTRGSGVPDRFTGSGSGTEFTLTISSVQAEDLAVYYCQNDYTYPLTFGAG
# notes: Mouse monoclonal, IgG2b; also called 2.13.E5; 2.13.E5.E4
# B2: TeiA 1.1 (antibody, IgG1, V domains shown)
# VH: GGLVQPGGSLRLSCATSGFTFSDFFIEWVRQPPGKRLEWITASRNKNYDYKTEYSASVKGRFIVSRDTSQSILYLQMNALRAEDTAIYYCAIYRHYAMDYWGQGTSVTVSS
# VL: B1 VL with K16T, R26T, F34Y, R37K, A41P, G53E, E68D
# notes: Mouse monoclonal, IgG1; The printed variable regions seem N-terminally incomplete (primer region missing); also called 3.46.B10; 3.46.B10.E7
# B3: TeiA 1.7 (antibody, IgG1, V domains shown)
# VH: GGLVQPGGSLRLSCATSGFTFSDFYMEWVRQPPGRRLEWIAASRDKAKDYTTEYSASVKGRFIVSRDTSQSIFYLQMNALRSEDTAIYYCATYFSYAMDYWGLGTSVTVSS
# VL: SSLTVTAGEKVTMNCKSSQNLLNSGNQVNYLTWFQQKPGQPPKLLIYWASTRESGVPDRFIGSGSGTDFTLTINSVQAEDLAVYYCQNDYRYPLTFGAG
# notes: Mouse monoclonal, IgG1; The printed variable regions seem N-terminally incomplete (primer region missing); also called 2.8.A3; 2.8.A3.F8
# Target: T1, Aβ6-13-bio
# Assay: Luminex: biotinylated peptide on avidin beads, anti-mouse phycoerythrin detection
# From the text: (§1) To determine the specificity of the antibody a peptide was used which is shifted two amino-acids N-terminal as compared to the Aβ₈₋₁₅, the Aβ₆₋₁₃ peptide. The biotinylated versions of these peptides are used in order to capture it efficiently to avidin Luminex beads. […] The results presented in Table 3 are raw data expressed as Mean Fluorescence Intensity (MFI).
row,Binder,Luminex assay (MFI)
1,B1,51 MFI
2,B2,24 MFI
3,B3,5 MFI

# Target: T2, Aβ8-15-bio
# Assay: as above
# From the text: as §1
row,Binder,Luminex assay (MFI)
1,B1,1690 MFI
2,B2,1820 MFI
3,B3,1720 MFI

# Target: T2, Aβ8-15-bio
# Assay: bridging assay: BSA-coupled Aβ8-15 peptide (PG127) captures one binding site, biotinylated peptide detects
# Description: Spleen of both mice were prepared and fused to SP2/0 cells. After plating, 66 plates (±3000 clones) were screened. […] In the bridging assay, BSA coupled peptide IGP-128, PG127 (see Table 3) was used to capture one binding site of the antibody and a biotinylated peptide was used to detect the captured antibody in a so-called bridging assay. This assay gives an indication on the affinity of the antibody: a high-affinity antibody will give a higher signal than a lower affinity antibody. Indeed ‘two classes’ of antibodies have been identified.
row,Binder,Bridging assay (OD450)
1,B1,4 OD450
2,B2,3.76 OD450
3,B3,0.222 OD450
